Bridge positions count the residues as written; N and C are the ends. Square brackets hold non-standard residues; d marks the D form. Side chains are listed from the residue outwards. * marks the point of attachment. Biotin = O=C1N[C@H]2[C@H](CS[C@H]2CCCCC(=O)*)N1; pGlu = O=C1CC[C@@H](C(=O)O)N1; Nle = CCCC[C@H](N)C(=O)O; AEEA = NCCOCCOCC(=O)O
T1: hCCR9 (human, UniProt P51686 1-369)
T1 sequence (looked up): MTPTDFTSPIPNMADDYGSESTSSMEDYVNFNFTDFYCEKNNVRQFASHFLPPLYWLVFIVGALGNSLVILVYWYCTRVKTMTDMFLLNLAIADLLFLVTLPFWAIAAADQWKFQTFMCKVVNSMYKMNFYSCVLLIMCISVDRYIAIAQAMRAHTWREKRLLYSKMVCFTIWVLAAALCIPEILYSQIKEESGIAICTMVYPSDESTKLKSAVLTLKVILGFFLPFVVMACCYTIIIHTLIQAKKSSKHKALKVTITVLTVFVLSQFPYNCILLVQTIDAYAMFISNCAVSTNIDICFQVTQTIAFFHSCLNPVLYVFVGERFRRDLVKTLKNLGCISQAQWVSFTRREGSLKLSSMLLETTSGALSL


Assays:
hCCR7 (human) = hCCR7 (human) (UniProt P32248); assay: cell-based or functional assay
hCCR9 = target: T1, hCCR9; assay: cell-based or functional assay

Chain of hCCR7 (human) (P32248 25-378 limits assumed): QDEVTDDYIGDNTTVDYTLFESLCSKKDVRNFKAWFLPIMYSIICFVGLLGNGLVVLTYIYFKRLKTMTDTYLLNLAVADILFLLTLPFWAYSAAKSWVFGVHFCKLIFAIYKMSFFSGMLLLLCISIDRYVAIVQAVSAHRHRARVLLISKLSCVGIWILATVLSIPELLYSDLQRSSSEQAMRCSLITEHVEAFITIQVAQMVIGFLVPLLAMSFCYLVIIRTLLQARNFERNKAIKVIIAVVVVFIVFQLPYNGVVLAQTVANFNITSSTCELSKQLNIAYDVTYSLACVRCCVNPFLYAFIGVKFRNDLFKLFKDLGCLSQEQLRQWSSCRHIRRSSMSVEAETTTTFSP

EC50, agonist activity in an Aequorin assay (hCCR7 (human))	EC50, agonist activity in an Aequorin assay (hCCR9)	Molecule
11 nM		biotinMIP-3β (human MIP-3β/CCL19 residues 1-77 with an additional Lys78 derivatised with Biotin) (from UniProt Q99731 22-98) (ligand)
	67.9 nM	native TECK (from UniProt O15444 24-150) (ligand)
1.6 nM		recombinant native MIP-3β (from UniProt Q99731 22-98) (ligand)
	63.6 nM	TECK-Biotin-Nle (truncated human TECK/CCL25, residues 1-74 of the mature protein, Met to Nleu substitution, derivatised at Lys72 with PEG-Biotin) (ligand, disulfide 7-35, 8-52; also: TFA salt) [pGlu]GVFEDCCLAYHYPIGWAVLRRAWTYRIQEVSGSCNLPAAIFYLPKRHRKVCGNPKSREVQRA[Nle]KLLDARNK([AEEA-Biotin])VF

Reference: patent EP3176583A2 (TLA Targeted Immunotherapies AB, dated 2017)
